The source of these data is PMC8458281, “Computational modeling and experimental validation of the EPI-X4/CXCR4 complex allows rational design of small peptide antagonists” (Communications Biology, 2021).

The test system of test [1] is CXCR4 E277A. The test can be described thus: 12G5 antibody competition, 293T cells transfected with CXCR4 E277A. As to conditions: IC50 on CXCR4 E277A relative to wt. In kind it is binding, human. The procedure:
(§1) Fig. 4 The interactions of EPI-X4 and the EPI-X4 derivatives WSC02 and JM#21 with point-mutated CXCR4 were assessed by an antibody competition assay. Amino acid substitutions were introduced in the sequence of CXCR4 by site-directed mutagenesis, cloned into an IRES-eGFP expression vector, and transfected into 293 T cells. Afterward, cells were incubated with serially diluted EPI-X4 (a, b), WSC02 (c, d), or JM#21 (e, f) in presence of a constant concentration of CXCR4 specific antibody (clone 12G5). After 2 h, bound antibody was analyzed by flow cytometry. a, c, e) Representative dose-dependent replacement of 12G5 antibody by peptides. b, d, f) IC50 values were calculated by nonlinear regression. Shown are data derived from at least three individual experiments ± SEM. IC50 values were set to 1000 µM (EPI-X4 and WSC02) or 100 µM (JM#21) if the value exceeds the maximally used concentration. *p ≤ 0.05, ***p ≤ 0.001 (one-way ANOVA for comparison with wt). For IC50 values see Table 1. For all binding curves see also Fig. S8.
(§2) Mutated CXCR4 constructs were transfected into 293 T cells that have a very low endogenous expression level of wild-type CXCR4. Transfected cells were then analyzed for CXCR4 surface expression (Fig. S5a) and EPI-X4 binding using a flow cytometry-based antibody competition assay (Fig. S5b, c)[33]. […]

The subject of test [2] is CXCR4 D187E. In words: 12G5 antibody competition, 293T cells transfected with CXCR4 D187E. The class given is binding, human. To be noted: IC50 on CXCR4 D187E relative to wt. The procedure: as §1, §2
In test [3] the test system is CXCR4 D262A. The test can be described thus: 12G5 antibody competition, 293T cells transfected with CXCR4 D262A. In kind it is binding, human. To be noted: IC50 on CXCR4 D262A relative to wt. As to the method: as §1, §2
The subject of test [4] is CXCR4 D97E + V112A + L41A. In words: 12G5 antibody competition, 293T cells transfected with CXCR4 D97E + V112A + L41A. In kind it is binding, human. As to conditions: IC50 on CXCR4 D97E + V112A + L41A relative to wt. As to the method:
as §1, §2

Another test has as its system CXCR4 V112A + L41A. In words: 12G5 antibody competition, 293T cells transfected with CXCR4 V112A + L41A. As to conditions: IC50 on CXCR4 V112A + L41A relative to wt. The class given is binding, human. The procedure:
as §1, §2

Test [5] has as its system CXCR4 D97E + V112L. The test can be described thus: 12G5 antibody competition, 293T cells transfected with CXCR4 D97E + V112L. The class given is binding, human. As to conditions: IC50 on CXCR4 D97E + V112L relative to wt. As to the method:
as §1, §2

For test [6], the system named is CXCR4 D97E + V112A. The test can be described thus: 12G5 antibody competition, 293T cells transfected with CXCR4 D97E + V112A. As to conditions: IC50 on CXCR4 D97E + V112A relative to wt. In kind it is binding, human. The procedure:
as §1, §2

In test [7] the test system is CXCR4 L41A. The test can be described thus: 12G5 antibody competition, 293T cells transfected with CXCR4 L41A. In kind it is binding, human. As to conditions: IC50 on CXCR4 L41A relative to wt. The procedure: as §1, §2
Test [8] deals with CXCR4 D97E. The test can be described thus: 12G5 antibody competition, 293T cells transfected with CXCR4 D97E. To be noted: IC50 on CXCR4 D97E relative to wt. In kind it is binding, human. The procedure:
as §1, §2

The subject of test [9] is CXCR4 V112A. In words: 12G5 antibody competition, 293T cells transfected with CXCR4 V112A. The class given is binding, human. As to conditions: IC50 on CXCR4 V112A relative to wt. As to the method:
as §1, §2

Test [10] has as its system CXCR4 D97S. In words: 12G5 antibody competition, 293T cells transfected with CXCR4 D97S. As to conditions: IC50 on CXCR4 D97S relative to wt. The class given is binding, human. The procedure: as §1, §2
For test [11], the target named is T1, C-X-C motif chemokine receptor 4 (CXCR4) on SupT1 cells (human (endogenous in SupT1), UniProt P61073 1-352).
T1 construct: CXCR4 as expressed on SupT1 cells; source: endogenous, on SupT1 cells
In words: flow cytometry on cells; 12G5 antibody competition on SupT1 cells; peptides in PBS with APC-conjugated 12G5 at a concentration close to its EC50, 4 °C, 2 h; MFI normalized to PBS control; IC50 by nonlinear regression. To be noted: one partner purified.

The target in test [12] is CXCR4 D97E + V112A (human, UniProt P61073-1 1-352, D97E | V112A). The test can be described thus: FACS. (In flow cytometry, cells or beads pass a laser one at a time.)
Sequence of CXCR4 D97E + V112A (human, UniProt P61073-1 1-352, D97E | V112A) (P61073 whole entry D97E/V112A): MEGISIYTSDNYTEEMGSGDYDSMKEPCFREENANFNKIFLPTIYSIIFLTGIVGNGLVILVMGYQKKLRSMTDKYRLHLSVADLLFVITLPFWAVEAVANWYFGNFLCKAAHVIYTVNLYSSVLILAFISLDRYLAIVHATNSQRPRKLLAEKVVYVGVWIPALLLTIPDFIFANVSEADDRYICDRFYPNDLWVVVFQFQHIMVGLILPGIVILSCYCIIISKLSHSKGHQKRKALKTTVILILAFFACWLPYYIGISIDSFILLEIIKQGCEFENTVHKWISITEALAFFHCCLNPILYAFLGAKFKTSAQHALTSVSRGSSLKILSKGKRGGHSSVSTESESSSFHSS
The next test concerns the target CXCR4 E288D (human, UniProt P61073-1 1-352, E288 to Asp). The test can be described thus: FACS.
The target in another test is CXCR4 D97Q (human, UniProt P61073-1 1-352, D97Q). In words: FACS.
Sequence of CXCR4 D97Q (P61073 whole entry D97Q): as the sequence (P61073 whole entry D97E/V112A) above, with E97Q, A112V counted along it
The target in test [13] is CXCR4 E277A (human, UniProt P61073-1 1-352, E277A). The test can be described thus: FACS.
Sequence of CXCR4 E277A (human, UniProt P61073-1 1-352, E277A) (P61073 whole entry E277A): as the sequence (P61073 whole entry D97E/V112A) above, with E97D, A112V, E277A counted along it
The target in another test is CXCR4 D97T (human, UniProt P61073-1 1-352, D97T). The test can be described thus: FACS.
For test [14], the target named is CXCR4 D97S (human, UniProt P61073-1 1-352, D97S). The test can be described thus: FACS.
The target of another test is CXCR4 D97N (human, UniProt P61073-1 1-352, D97N). The test can be described thus: FACS.
The target of test [15] is CXCR4 L41A (human, UniProt P61073-1 1-352, L41A). In words: FACS.
Sequence of CXCR4 L41A (human, UniProt P61073-1 1-352, L41A) (P61073 whole entry L41A): as the sequence (P61073 whole entry D97E/V112A) above, with L41A, E97D, A112V counted along it
Test [16] deals with CXCR4 D97E + V112L (human, UniProt P61073-1 1-352, D97E | V112L). The test can be described thus: FACS.
Sequence of CXCR4 D97E + V112L (human, UniProt P61073-1 1-352, D97E | V112L) (P61073 whole entry D97E/V112L): as the sequence (P61073 whole entry D97E/V112A) above, with A112L counted along it
The target in the next test is CXCR4 V112L (human, UniProt P61073-1 1-352, V112L). The test can be described thus: FACS.
Sequence of CXCR4 V112L (P61073 whole entry V112L): as the sequence (P61073 whole entry D97E/V112A) above, with E97D, A112L counted along it
In test [17] the target is T2, CXCR4 wt (transfected 293T cells) (human, UniProt P61073-1 1-352).
T2 chain: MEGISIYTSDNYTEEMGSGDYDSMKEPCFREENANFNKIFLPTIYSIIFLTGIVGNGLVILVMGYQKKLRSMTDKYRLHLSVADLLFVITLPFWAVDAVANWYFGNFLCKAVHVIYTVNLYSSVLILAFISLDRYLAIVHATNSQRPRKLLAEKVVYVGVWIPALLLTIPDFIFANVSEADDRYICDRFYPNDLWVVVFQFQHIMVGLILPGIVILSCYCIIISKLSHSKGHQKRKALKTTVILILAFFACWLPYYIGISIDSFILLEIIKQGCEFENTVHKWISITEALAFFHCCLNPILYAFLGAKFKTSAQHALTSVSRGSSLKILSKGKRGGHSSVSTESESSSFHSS
The test can be described thus: FACS.

Another test addresses CXCR4 E288A (human, UniProt P61073-1 1-352, E288 to Ala). In words: FACS.
Test [18] has as its target CXCR4 V112A (human, UniProt P61073-1 1-352, V112A). The test can be described thus: FACS.
Test [19] addresses CXCR4 D262A (human, UniProt P61073-1 1-352, D262A). In words: FACS.
For test [20], the target named is CXCR4 D187E (human, UniProt P61073-1 1-352, D187E). In words: FACS.
Sequence of CXCR4 D187E (human, UniProt P61073-1 1-352, D187E) (P61073 whole entry D187E): as the sequence (P61073 whole entry D97E/V112A) above, with E97D, A112V, D187E counted along it
Test [21] concerns the target CXCR4 D97E (human, UniProt P61073-1 1-352, D97E). In words: FACS.
Test [22] concerns the target CXCR4 D97E + V112A + L41A (human, UniProt P61073-1 1-352, L41A | D97E | V112A). In words: FACS.

No end group written: not given here.

Sequence of CXCR4 E288D (P61073 whole entry E288D): as the sequence (P61073 whole entry D97E/V112A) above, with E97D, A112V, E288D counted along it
Sequence of CXCR4 D97E (human, UniProt P61073-1 1-352, D97E) (P61073 whole entry D97E): as the sequence (P61073 whole entry D97E/V112A) above, with A112V counted along it
Sequence of CXCR4 E288A (P61073 whole entry E288A): as the sequence (P61073 whole entry D97E/V112A) above, with E97D, A112V, E288A counted along it

Regarding “LVRYTKKVPQVSTPTL [EPI-X4, 16-mer fragment of albumin, endogenous antagonist and inverse agonist of CXCR4]”, the Fold change in the test on CXCR4 E277A [1] is 1.3; with CXCR4 D187E [2], 1.2; in the test on CXCR4 D262A [3] it was 0.7; in test [4], 7; in the test on CXCR4 V112A + L41A it was 11; with CXCR4 D97E + V112L [5], 32. In addition, the Fold change turned out to be 2.6 in the test on CXCR4 D97E + V112A [6]; 19 with CXCR4 L41A [7]; 18 in the test with CXCR4 D97E [8]; 1.6 with CXCR4 V112A [9]; 112 in the test on CXCR4 D97S [10].

B1: WSC02 408–416-NH2 (peptide)
peptide: IVRWSKKVP-NH2
notes: WSC02 truncated by three residues; source: synthetic peptide (Fmoc solid-phase synthesis, HPLC-purified)
As to B1, the IC50 – broadly, the concentration at which inhibition is half-maximal – in test [11] was 312 nM.

B2: EPI-X4 JM#21 (peptide)
peptide: ILRWSRKLPCVS
notes: source: synthetic peptide (Fmoc solid-phase synthesis, HPLC-purified)
For B2, the half-inhibitory concentration (IC50) in the test with CXCR4 D97E + V112A [12] was found to be 470 nM; with CXCR4 E288D it was 14200 nM; with CXCR4 D97Q, 8050 nM; with CXCR4 E277A [13], 280 nM; in the test with CXCR4 D97T it was 3830 nM; in the test with CXCR4 D97S [14], 5390 nM. The IC50 with CXCR4 D97N stood at 11000 nM; with CXCR4 L41A [15], 720 nM; with CXCR4 D97E + V112L [16], 370 nM; with CXCR4 V112L, 410 nM; in [17], 660 nM; with CXCR4 E288A, 86400 nM. In addition, the IC50 with CXCR4 V112A [18] is 3450 nM; with CXCR4 D262A [19], 230 nM; with CXCR4 D187E [20] it was 310 nM; in the test with CXCR4 D97E [21], 1910 nM; in [22], 400 nM; in test [11] it was 145 nM.

B3: WSC02 408–414-NH2 (peptide)
peptide: IVRWSKK-NH2
notes: WSC02 truncated by five residues; source: synthetic peptide (Fmoc solid-phase synthesis, HPLC-purified)
Molecule B3 yielded an IC50 in test [11] of 469 nM.

B4: EPI-X4 408–414-NH2 (peptide)
peptide: LVRYTKK-NH2
notes: as for B2
In test [11], B4 gave a half-inhibitory concentration (IC50) of 954 nM.

B5: JM#21 408–416-NH2 (peptide)
peptide: ILRWSRKLP-NH2
notes: JM#21 truncated by three residues; source: synthetic peptide (Fmoc solid-phase synthesis, HPLC-purified)
The molecule B5 registered an IC50 in test [11] of 262 nM.

B6: EPI-X4 408–416-NH2 (peptide)
peptide: LVRYTKKVP-NH2
notes: as for B2
Take B6: the IC50 in test [11] was 1030 nM.

B7: EPI-X4 JM#21 408–414-NH2 (peptide)
peptide: ILRWSRK-NH2
notes: JM#21 truncated by five residues; source: synthetic peptide (Fmoc solid-phase synthesis, HPLC-purified)
B7 yielded an IC50 in test [11] of 157 nM.
